Numbering of substitutions follows the chain as printed.
B1: RA010 (nucleic acid)
DNA: GCGCGTCCTGGACGAGAATACCAGCATCGTCTTGATGCCCTTGGAAGTCTCGTTCGCGGAAACGCGTACATCCAGCTGACGAGTCCCAAATAGGACGAAACGCGC
modifications: expressed or natural sequence
B2: RA105 (nucleic acid)
DNA: GCGCGTCCTGGAGAATACCAGCATCGTCTTGATGCCCTTGGAAGTCTCGATTCGCGGAAACGCGTACATCCAGCTGACGAGTCCCAAATAGGACGAAACGCGC
modifications: expressed or natural sequence
B3: RA108 (nucleic acid)
DNA: GCGCGTCCTGGATTCGCGGCCGGAATACCAGCATCGTCTTGATGCCCTTGGAAGTCCGGAAACGCGTACATCCAGCTGACGAGTCCCAAATAGGACGAAACGCGC
modifications: expressed or natural sequence
B4: RA110 (nucleic acid)
DNA: GCGCGTCCTGGGGAATACCAGCATCGTCTTGATGCCCTTGGAAGTCCATTCGCGGAAACGCGTACATCCAGCTGACGAGTCCCAAATAGGACGAAACGCGC
modifications: expressed or natural sequence
B5: RA117 (nucleic acid)
DNA: GCGCGTCCTGGATCGGAATACCAGCATCGTCTTGATGCCCTTGGAAGTCCGTCGCGGAAACGCGTACATCCAGCTGACGAGTCCCAAATAGGACGAAACGCGC
modifications: expressed or natural sequence
B6: RA103 (nucleic acid)
DNA: GCGCGTCCTGGATTCGCGGAAACGCGTACATCCAGCTGACGGAATACCAGCATCGTCTTGATGCCCTTGGAAGTCCGAGTCCCAAATAGGACGAAACGCGC
modifications: expressed or natural sequence
B7: RA112 (nucleic acid)
DNA: GCGCGTCCTGGATTCGCGGAAACGCGTACATCCAGGGAATACCAGCATCGTCTTGATGCCCTTGGAAGTCCCTGACGAGTCCCAAATAGGACAAAACGCGC
modifications: expressed or natural sequence
B8: RA009 (nucleic acid)
DNA: GCGCGTCCTGGATTCGCGGAAACGCGTACATCCAGCTGACGAGTCCCAAATAGGACGACCGGAATACCAGCATCGTCTTGATGCCCTTGGAAGTCCGGAACGCGC
modifications: expressed or natural sequence
B9: RA116 (nucleic acid)
DNA: GCGCGTCCTGGATTCGCGGAAACGCGTACATCCAGCTGACGAGTCCCAAATAGGGAGAATACCAGCATCGTCTTGATGCCCTTGGAAGTCTCACGAAACGCGC
modifications: expressed or natural sequence
B10: RA097 (nucleic acid)
DNA: GCGCGTCCTGGATTCGCGGAAACGCGTACATCCAGCTGACGAGTCCCAGAATACCAGCATCGTCTTGATGCCCTTGGAAGTCTAAATAGGACGAAACGCGC
modifications: expressed or natural sequence
B11: RA115 (nucleic acid)
DNA: GCGCGTCCTGGATTCGCGGAAACGCGTACATCCAGCTGACGAGTCCCAAATAGGACGAGAATACCAGCATCGTCTTGATGCCCTTGGAAGTCTAAACGCGC
modifications: expressed or natural sequence
B12: RA098 (nucleic acid)
DNA: GCGCGTCCTGGATTCGCGGAAACGCGTACATCCCCGGAATACCAGCATCGTCTTGATGCCCTTGGAAGTCCGGAGCTGACGAGTCCCAAATAGGACGAAACGCGC
modifications: expressed or natural sequence
B13: RA101 (nucleic acid)
DNA: GCGCGTCCTGGATTCGCGGAAACGCGTACATCCAGCTGACGAGTCCCAAATAGGACGAACGGAATACCAGCATCGTCTTGATGCCCTTGGAAGTCCGACGCGC
modifications: expressed or natural sequence
B14: RA094 (nucleic acid)
DNA: GCGCGTCCTGGATTCGCGGAGGAATACCAGCATCGTCTTGATGCCCTTGGAAGTCCAACGCGTACATCCAGCTGACGAGTCCCAAATAGGACGAAACGCGC
modifications: expressed or natural sequence
B15: RA104 (nucleic acid)
DNA: GCGCGTCCTGGATTCGCGGAAACGCGTACATCCAGCTGACGAGTCCCAAATCGAGAATACCAGCATCGTCTTGATGCCCTTGGAAGTCTCGAGGACGAAACGCGC
modifications: expressed or natural sequence
B16: RA109 (nucleic acid)
DNA: GCGCCGAGAATACCAGCATCGTCTTGATGCCCTTGGAAGTCTCGGTCCTGGATTCGCGGAAACGCGTACATCCAGCTGACGAGTCCCAAATAGGACGAAACGCGC
modifications: expressed or natural sequence
B17: RA100 (nucleic acid)
DNA: GCGCGTCCTGGATTCGCGGAAACGCGTACATCCAGCTGACCGGAATACCAGCATCGTCTTGATGCCCTTGGAAGTCCGGAGTCCCAAATAGGACGAAACGCGC
modifications: expressed or natural sequence
B18: RA096 (nucleic acid)
DNA: GCGCGTCAGTGATACCAGCATCGTCTTGATGCCCTTGGCAGCACTCTGGATTCGCGGAAACGCGTACATCCAGCTGACGAGTCCCAAATAGGACGAAACGCGC
modifications: expressed or natural sequence
B19: RA095 (nucleic acid)
DNA: GCGCGTCAGAATACCAGCATCGTCTTGATGCCCTTGGAAGTCTCTGGATTCGCGGAAACGCGTACATCCAGCTGACGAGTCCCAAATAGGACGAAACGCGC
modifications: expressed or natural sequence
B20: RA102 (nucleic acid)
DNA: B19 DNA with A8G, T43C
modifications: expressed or natural sequence
B21: RA111 (nucleic acid)
DNA: GCGCGTCCTAGTGATACCAGCATCGTCTTGATGCCCTTGGCAGCACTGGATTCGCGGAAACGCGTACATCCAGCTGACGAGTCCCAAATAGGACGAAACGCGC
modifications: expressed or natural sequence
B22: RA106 (nucleic acid)
DNA: GCGCGTCCTGGATTCGCGGAAACGCGTACATCCAGCTGACCGGAATACCAGCATCGTCTTGATGCCCTTGGAAGTCCGGCGAGTCCCAAATAGGACGAAACGCGC
modifications: expressed or natural sequence
B23: RA011 (nucleic acid)
DNA: GCGCGTCCTGGATTCGCGGAAACGCGTACATCCAGCTGACGAGTCCCGGAATACCAGCATCGTCTTGATGCCCTTGGAAGTCCGCAAATAGGACGAAACGCGC
modifications: expressed or natural sequence
B24: RA099 (nucleic acid)
DNA: GCGCGTCCTGGATTCGCGGAAACGCGTACATAGTGATACCAGCATCGTCTTGATGCCCTTGGCAGCACTCCAGCTGACGAGTCCCAAATAGGACGAAACGCGC
modifications: expressed or natural sequence
B25: RA113 (nucleic acid)
DNA: GCGCGTCCTGGATTCGCGGAAACGCGTACATCCAGCTGACGAGTCCCAAATAGGACGAAACGCGC
modifications: expressed or natural sequence
B26: RA114 (nucleic acid)
DNA: GCGCGTCCTGGATTCGCGGAAACGCGTACATCCAGCTGACGAGTCCCAAATAGGACGAGGAATACCAGCATCGTCTTGATGCCCTTGGAAGTCCAACGCGC
modifications: expressed or natural sequence
B27: RA107 (nucleic acid)
DNA: GCGCGTCCTGGATTCGCGGAAACGCGTACATCCCGGAATACCAGCATCGTCTTGATGCCCTTGGAAGTCCGAGCTGACGAGTCCCAAATAGGACGAAACGCGC
modifications: expressed or natural sequence
B28: RA093 (nucleic acid)
DNA: AGTGATACCAGCATCGTCTTGATGCCCTTGGCAGCACTGCGCGTCCTGGATTCGCGGAAACGCGTACATCCAGCTGACGAGTCCCAAATAGGACGAAACGCGC
modifications: expressed or natural sequence

The molecules below were run on Renilla luciferase RNA (assay: Barcoded aptazyme variant library screen: un-cleaved Renilla luciferase RNA by barcode read counts, HEK293-T cells). Conditions: un-cleaved Renilla luciferase RNA, HEK293-T cells cultured with 1 mM theophylline (ON) over without theophylline (OFF); barcode read counts, triplicate.
Type: cell-based
Procedure, shortened: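 Barcode sequencing of cDNA versus DNA, normalized per aptazyme, gave the un-cleaved Renilla luciferase RNA fraction and fold-change with versus without theophylline (triplicates). Library: T3H48 ribozyme with one of seven theophylline aptamer variants inserted at each position, placed in the Renilla 3′ UTR of a dual-luciferase vector.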

Molecule | Fold change in RNA expression between the ON state and the OFF state [fold]
B1 | 3.6
B2 | 1.6
B3 | 1.6
B4 | 1.6
B5 | 1.5
B6 | 1.6
B7 | 1.5
B8 | 3.8
B9 | 1.5
B10 | 1.6
B11 | 1.5
B12 | 1.6
B13 | 1.6
B14 | 1.6
B15 | 1.6
B16 | 1.6
B17 | 1.6
B18 | 1.6
B19 | 1.6
B20 | 1.6
B21 | 1.6
B22 | 1.6
B23 | 3.6
B24 | 1.6
B25 | 1.5
B26 | 1.5
B27 | 1.6
B28 | 1.6

Source: patent US20260167959A1, “APTAZYME-BASED REGULATABLE GENE EXPRESSION SYSTEMS” (REJUVENATE BIO INC, priority 2022, published 2026)
